The assay addresses T1, 6xHis-CTNNBL1Δ76 (human, UniProt Q8WYA6 77-563).
T1 chain: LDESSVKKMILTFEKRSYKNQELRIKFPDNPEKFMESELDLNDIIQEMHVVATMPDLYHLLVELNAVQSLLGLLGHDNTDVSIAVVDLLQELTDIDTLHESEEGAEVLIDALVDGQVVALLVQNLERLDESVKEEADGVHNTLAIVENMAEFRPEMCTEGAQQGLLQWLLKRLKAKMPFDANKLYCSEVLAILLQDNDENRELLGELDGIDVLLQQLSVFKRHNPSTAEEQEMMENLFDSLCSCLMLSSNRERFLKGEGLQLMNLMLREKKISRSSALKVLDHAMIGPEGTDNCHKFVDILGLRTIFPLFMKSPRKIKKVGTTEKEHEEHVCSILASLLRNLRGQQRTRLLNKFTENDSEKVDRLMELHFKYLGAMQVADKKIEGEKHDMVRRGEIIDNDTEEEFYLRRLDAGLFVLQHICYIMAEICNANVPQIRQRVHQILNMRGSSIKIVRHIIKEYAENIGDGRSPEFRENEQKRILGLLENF
Kind of assay: ITC; second site.

Data on two molecules can be found in paper PMC3885797 (2014).

B1: CDC5L NLS3 peptide (peptide)
chain: KKRKRKR
modifications: Limits are the UniProt region required for CTNNBL1 interaction (200-206), taken as the NLS3 core; the assayed peptide is shown only in Fig. 4B and may have longer flanks
For B1, the Kd is around 4 µM.

B2: Prp31 NLS peptide (peptide)
chain: RKKRGGRRYRKMKE
modifications: Limits are the UniProt NLS motif (351-364); the exact peptide is shown only in Fig. 4B and may have different flanks
In the case of B2, the Kd is around 12 µM.
